B1: Phytanoyl-CoA dioxygenase, peroxisomal (Homo sapiens), O14832 (parent)
chain: MEQLRAAARLQIVLGHLGRPSAGAVVAHPTSGTISSASFHPQQFQYTLDNNVLTLEQRKFYEENGFLVIKNLVPDADIQRFRNEFEKICRKEVKPLGLTVMRDVTISKSEYAPSEKMITKVQDFQEDKELFRYCTLPEILKYVECFTGPNIMAMHTMLINKPPDSGKKTSRHPLHQDLHYFPFRPSDLIVCAWTAMEHISRNNGCLVVLPGTHKGSLKPHDYPKWEGGVNKMFHGIQDYEENKARVHLVMEKGDTVFFHPLLIHGSGQNKTQGFRKAISCHFASADCHYIDVKGTSQENIEKEVVGIAHKFFGAENSVNLKDIWMFRARLVKGERTNL
B2: Zinc finger protein 41 (Homo sapiens), P51814-6 (parent)
chain: MAANGDSPPWSPALAAEGRGSSCEASVSFEDVTVDFSKEEWQHLDPAQRRLYWDVTLENYSHLLSVGYQIPKSEAAFKLEQGEGPWMLEGEAPHQSCSGEAIGKMQQQGIPGGIFFHCERFDQPIGEDSLCSILEELWQDNDQLEQRQENQNNLLSHVKVLIKERGYEHKNIEKIIHVTTKLVPSIKRLHNCDTILKHTLNSHNHNRNSATKNLGKIFGNGNNFPHSPSSTKNENAKTGANSCEHDHYEKHLSHKQAPTHHQKIHPEEKLYVCTECVMGFTQKSHLFEHQRIHAGEKSRECDKSNKVFPQKPQVDVHPSVYTGEKPYLCTQCGKVFTLKSNLITHQKIHTGQKPYKCSECGKAFFQRSDLFRHLRIHTGEKPYECSECGKGFSQNSDLSIHQKTHTGEKHYECNECGKAFTRKSALRMHQRIHTGEKPYVCADCGKAFIQKSHFNTHQRIHTGEKPYECSDCGKSFTKKSQLHVHQRIHTGEKPYICTECGKVFTHRTNLTTHQKTHTGEKPYMCAECGKAFTDQSNLIKHQKTHTGEKPYKCNGCGKAFIWKSRLKIHQKSHIGERHYECKDCGKAFIQKSTLSVHQRIHTGEKPYVCPECGKAFIQKSHFIAHHRIHTGEKPYECSDCGKCFTKKSQLRVHQKIHTGEKPNICAECGKAFTDRSNLITHQKIHTREKPYECGDCGKTFTWKSRLNIHQKSHTGERHYECSKCGKAFIQKATLSMHQIIHTGKKPYACTECQKAFTDRSNLIKHQKMHSGEKRYKASD
B3: Acetylcholine receptor subunit gamma (Homo sapiens), P07510-2 (parent)
chain: MHGGQGPLLLLLLLAVCLGAQGRNQEERLLADLMQNYDPNLRPAERDSDVVNVSLKLTLTNLISLNEREEALTTNVWIEMQWCDYRLRWDPRDYEGLWVLRVPSTMVWRPDIVLENKSQTYSTNEIDLQLSQEDGQTIEWIFIDPEAFTENGEWAIQHRPAKMLLDPAAPAQEAGHQKVVFYLLIQRKPLFYVINIIAPCVLISSVAILIHFLPAKAGGQKCTVAINVLLAQTVFLFLVAKKVPETSQAVPLISKYLTFLLVVTILIVVNAVVVLNVSLRSPHTHSMARGVRKVFLRLLPQLLRMHVRPLAPAAVQDTQSRLQNGSSGWSITTGEEVALCLPRSELLFQQWQRQGLVAAALEKLEKGPELGLSQFCGSLKQAAPAIQACVEACNLIACARHQQSHFDNGNEEWFLVGRVLDRVCFLAMLSLFICGTAGIFLMAHYNRVPALPFPGDPRPYLPSPD
partner: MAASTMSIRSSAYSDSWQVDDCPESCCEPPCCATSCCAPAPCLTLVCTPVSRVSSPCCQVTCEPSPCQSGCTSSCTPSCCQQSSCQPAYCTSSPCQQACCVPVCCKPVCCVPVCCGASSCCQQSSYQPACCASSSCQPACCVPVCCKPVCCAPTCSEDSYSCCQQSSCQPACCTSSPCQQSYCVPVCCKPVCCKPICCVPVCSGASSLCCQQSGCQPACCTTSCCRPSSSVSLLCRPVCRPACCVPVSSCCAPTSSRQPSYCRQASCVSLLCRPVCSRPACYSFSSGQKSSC
B4: U4/U6 small nuclear ribonucleoprotein Prp31 (Homo sapiens), Q8WWY3 (parent)
chain: MSLADELLADLEEAAEEEEGGSYGEEEEEPAIEDVQEETQLDLSGDSVKTIAKLWDSKMFAEIMMKIEEYISKQAKASEVMGPVEAAPEYRVIVDANNLTVEIENELNIIHKFIRDKYSKRFPELESLVPNALDYIRTVKELGNSLDKCKNNENLQQILTNATIMVVSVTASTTQGQQLSEEELERLEEACDMALELNASKHRIYEYVESRMSFIAPNLSIIIGASTAAKIMGVAGGLTNLSKMPACNIMLLGAQRKTLSGFSSTSVLPHTGYIYHSDIVQSLPPDLRRKAARLVAAKCTLAARVDSFHESTEGKVGYELKDEIERKFDKWQEPPPVKQVKPLPAPLDGQRKKRGGRRYRKMKERLGLTEIRKQANRMSFGEIEEDAYQEDLGFSLGHLGKSGSGRVRQTQVNEATKARISKTLQRTLQKQSVVYGGKSTIRDRSSGTASSVAFTPLQGLEIVNPQAAEKKVAEANQKYFSSMAEFLKVKGEKSGLMST
partner: B3 partner
B5: Acetylcholine receptor subunit gamma (Homo sapiens), P07510-2 (parent)
chain: B3 chain
partner: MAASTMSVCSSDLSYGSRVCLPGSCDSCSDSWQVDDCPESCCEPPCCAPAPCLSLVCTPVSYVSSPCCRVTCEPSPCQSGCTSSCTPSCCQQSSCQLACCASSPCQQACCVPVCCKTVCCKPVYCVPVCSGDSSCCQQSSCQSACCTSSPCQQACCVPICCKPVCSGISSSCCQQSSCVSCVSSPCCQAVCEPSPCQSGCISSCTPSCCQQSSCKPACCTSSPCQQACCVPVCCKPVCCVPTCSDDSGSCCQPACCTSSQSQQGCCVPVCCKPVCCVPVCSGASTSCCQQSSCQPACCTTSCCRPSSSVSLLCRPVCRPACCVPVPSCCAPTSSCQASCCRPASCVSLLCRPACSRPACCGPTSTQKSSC
B6: Torsin-1A (Homo sapiens), O14656 (parent)
chain: MKLGRAVLGLLLLAPSVVQAVEPISLGLALAGVLTGYIYPRLYCLFAECCGQKRSLSREALQKDLDDNLFGQHLAKKIILNAVFGFINNPKPKKPLTLSLHGWTGTGKNFVSKIIAENIYEGGLNSDYVHLFVATLHFPHASNITLYKDQLQLWIRGNVSACARSIFIFDEMDKMHAGLIDAIKPFLDYYDLVDGVSYQKAMFIFLSNAGAERITDVALDFWRSGKQREDIKLKDIEHALSVSVFNNKNSGFWHSSLIDRNLIDYFVPFLPLEYKHLKMCIRVEMQSRGYEIDEDIVSRVAEEMTFFPKEERVFSDKGCKTVFTKLDYYYDD
partner: B5 partner
B7: Three-prime repair exonuclease 1 (Homo sapiens), Q9NSU2-1 (parent)
chain: MGPGARRQGRIVQGRPEMCFCPPPTPLPPLRILTLGTHTPTPCSSPGSAAGTYPTMGSQALPPGPMQTLIFFDMEATGLPFSQPKVTELCLLAVHRCALESPPTSQGPPPTVPPPPRVVDKLSLCVAPGKACSPAASEITGLSTAVLAAHGRQCFDDNLANLLLAFLRRQPQPWCLVAHNGDRYDFPLLQAELAMLGLTSALDGAFCVDSITALKALERASSPSEHGPRKSYSLGSIYTRLYGQSPPDSHTAEGDVLALLSICQWRPQALLRWVDAHARPFGTIRPMYGVTASARTKPRPSAVTTTAHLATTRNTSPSLGESRGTKDLPPVKDPGALSREGLLAPLGLLAILTLAVATLYGLSLATPGE
partner: B5 partner
B8: Ribose-phosphate pyrophosphokinase 1 (Homo sapiens), P60891 (parent)
chain: MPNIKIFSGSSHQDLSQKIADRLGLELGKVVTKKFSNQETCVEIGESVRGEDVYIVQSGCGEINDNLMELLIMINACKIASASRVTAVIPCFPYARQDKKDKSRAPISAKLVANMLSVAGADHIITMDLHASQIQGFFDIPVDNLYAEPAVLKWIRENISEWRNCTIVSPDAGGAKRVTSIADRLNVDFALIHKERKKANEVDRMVLVGDVKDRVAILVDDMADTCGTICHAADKLLSAGATRVYAILTHGIFSGPAISRINNACFEAVVVTNTIPQEDKMKHCSKIQVIDISMILAEAIRRTHNGESVSYLFSHVPL
partner: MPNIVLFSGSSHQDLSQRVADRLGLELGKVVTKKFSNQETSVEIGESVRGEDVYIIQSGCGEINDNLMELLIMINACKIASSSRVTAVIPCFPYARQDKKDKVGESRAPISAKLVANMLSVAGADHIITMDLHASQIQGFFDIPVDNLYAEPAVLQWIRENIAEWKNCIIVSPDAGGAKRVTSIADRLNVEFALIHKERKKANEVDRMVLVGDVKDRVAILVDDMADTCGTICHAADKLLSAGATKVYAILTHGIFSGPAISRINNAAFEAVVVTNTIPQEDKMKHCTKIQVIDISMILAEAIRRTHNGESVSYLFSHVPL

Variants of: B1
Details: with fam9b_human FAM9B
Target sequence in this assay (Q8IZU0 whole entry): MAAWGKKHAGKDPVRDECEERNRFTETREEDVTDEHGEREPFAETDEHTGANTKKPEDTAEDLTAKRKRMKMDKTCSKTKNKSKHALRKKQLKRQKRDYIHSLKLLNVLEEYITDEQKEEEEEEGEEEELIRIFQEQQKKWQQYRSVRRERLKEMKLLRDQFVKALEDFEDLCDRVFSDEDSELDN

Variant	effect of a mutation on the interaction
P29S	with no effect
N83Y	disrupting interaction strength
I199F	disrupting interaction strength
N269H	with no effect

Variants of: B2
Details: with fam9b_human FAM9B
Target sequence in this assay (Q8IZU0 whole entry): as above

Variant	effect of a mutation on the interaction
I125R	with no effect
P111L	disrupting interaction strength
C301R	with no effect

Variants of: B3
Details: with kr109_human KRTAP10-9, P60411

Variant	effect of a mutation on the interaction
R187C	disrupting interaction strength
R86C	disrupting interaction strength
V107G	disrupting interaction strength

Variants of: B4
Details: with kr109_human KRTAP10-9, P60411

Variant	effect of a mutation on the interaction
L107V	with no effect

Variants of: B5
Details: with kr107_human KRTAP10-7, P60409

Variant	effect of a mutation on the interaction
R86C	disrupting interaction strength
V107G	disrupting interaction strength
R187C	disrupting interaction strength

Variants of: B6
Details: with kr107_human KRTAP10-7, P60409

Variant	effect of a mutation on the interaction
D216H	with no effect
R288Q	with no effect

Variants of: B7
Details: with kr107_human KRTAP10-7, P60409

Variant	effect of a mutation on the interaction
R169H	with no effect
A213V	with no effect
G361A	with no effect

Variants of: B8
Details: with PRPS2, P11908-2

Variant	effect of a mutation on the interaction
D52H	with no effect
N114S	with no effect
